Laboratory results taken from publication doi:10.1101/2024.02.23.581399 (bioRxiv, 2024).
Values belong to the binder of their own block, whether it stands above or below them. Non-standard residues stand in square brackets, D forms with d. No end group written: not given here. pT = C[C@@H](OP(=O)(O)O)[C@H](N)C(=O)O; pS = N[C@@H](COP(=O)(O)O)C(=O)O

Molecular target: T1, PLK1PBD (human, UniProt P53350 370-603)
T1 construct: PLK1, human, residues 370-603 (Polo-box domain); Labelled PLK1PBD without a tag in the amylose pull-downs and the crystal structures; also called PLK1_(370-603); Polo-Box Domain; source: E. coli BL21 Gold (DE3), purified (HisTrap, SEC)
T1 sequence (P53350 370-603): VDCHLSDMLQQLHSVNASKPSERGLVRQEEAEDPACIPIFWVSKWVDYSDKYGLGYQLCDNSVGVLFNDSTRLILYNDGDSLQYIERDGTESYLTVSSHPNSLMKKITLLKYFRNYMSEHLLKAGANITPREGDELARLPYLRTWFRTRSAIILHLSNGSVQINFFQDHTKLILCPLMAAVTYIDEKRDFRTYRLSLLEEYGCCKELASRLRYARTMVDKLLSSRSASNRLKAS
Experiment: crystal structure; PLK1PBD mixed with two times molar excess of phospho-peptide, sitting drop, 18°C
Settings: both partners purified

binding result: binds
B1: Mis18α_(49-55) phospho-peptide (ASMWSSphM) (peptide)
peptide: ASMWS[pS]M
notes: also called S54ph peptide; Mis18α_(S54ph); source: synthetic peptide (Peptide Synthetics)

binding result: binds
B2: Mis18BP1_(72-82) phospho-peptide (KNIFQSTphMLTE) (peptide)
peptide: KNIFQS[pT]MLTE
notes: Mis18BP1, human, residues 72-82; also called T78ph peptide; Mis18BP1_(T78ph); source: synthetic peptide (Peptide Synthetics)
